In article PMC5577323, “Oxidant sensor in the cGMP-binding pocket of PKGIα regulates nitroxyl-mediated kinase activity” (Scientific Reports, 2017):

Molecular target: the molecule itself
Assay: cross-linking; interprotein disulfide formed in transfected HEK-293 cells (vehicle, NCA 100 µmol/L 30 min or AS 500 µmol/L 15 min); homogenates in non-reducing Laemmli buffer with 100 mmol/L maleimide, SDS-PAGE, western blot for PKGIα; 150 kDa band lost with 2-mercaptoethanol

B1: cGMP-dependent protein kinase I-alpha (PKGIα), human, wildtype (enzyme, UniProt Q13976 1-671, looked up)
chain: MSELEEDFAKILMLKEERIKELEKRLSEKEEEIQELKRKLHKCQSVLPVPSTHIGPRTTRAQGISAEPQTYRSFHDLRQAFRKFTKSERSKDLIKEAILDNDFMKNLELSQIQEIVDCMYPVEYGKDSCIIKEGDVGSLVYVMEDGKVEVTKEGVKLCTMGPGKVFGELAILYNCTRTATVKTLVNVKLWAIDRQCFQTIMMRTGLIKHTEYMEFLKSVPTFQSLPEEILSKLADVLEETHYENGEYIIRQGARGDTFFIISKGTVNVTREDSPSEDPVFLRTLGKGDWFGEKALQGEDVRTANVIAAEAVTCLVIDRDSFKHLIGGLDDVSNKAYEDAEAKAKYEAEAAFFANLKLSDFNIIDTLGVGGFGRVELVQLKSEESKTFAMKILKKRHIVDTRQQEHIRSEKQIMQGAHSDFIVRLYRTFKDSKYLYMLMEACLGGELWTILRDRGSFEDSTTRFYTACVVEAFAYLHSKGIIYRDLKPENLILDHRGYAKLVDFGFAKKIGFGKKTWTFCGTPEYVAPEIILNKGHDISADYWSLGILMYELLTGSPPFSGPDPMKTYNIILRGIDMIEFPKKIAKNAANLIKKLCRDNPSERLGNLKNGVKDIQKHKWFEGFNWEGLRKGTLTPPIIPSVASPTDTSNFDSFPEDNDEPPPDDNSGWDIDF
modifications: interprotein disulfide at Cys42 (between the two subunits); intradisulfide Cys117-Cys195 after HNO donors
notes: written here as one chain because the row is of the protein with itself; also called WT PKGIα; PKGIα WT; source: HEK-293, transfected (pcDNA3), in cell homogenate
stoichiometry N: 2
